Measurements taken from the supplement of paper PMC9112550, “Optimization of the antimicrobial peptide Bac7 by deep mutational scanning” (BMC Biology, 2022).

What follows are sequences tested on Escherichia coli TOP10 (assay: shrunken log2 fold change of peptide-encoding DNA abundance (4.5 h post-induction vs induction); higher = less antimicrobial activity (less host growth inhibition)). Details: time post-induction: 4.5 h; library: site-saturation at positions 5, 18, 19, 20.
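Also: peptides expressed intracellularly from a pBAD plasmid library in pooled LB shake-flask culture, induced with 0.3% L-arabinose, DNA abundance read by NGS, three biological replicates, DESeq2 with apeglm shrinkage.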

Row | Sequence | shrunken log2 fold change
1 | RRIRCRPPRLPRPRPRPNYDPRP | -0.672
2 | RRIRCRPPRLPRPRPRPNYFPRP | -0.763
3 | RRIRCRPPRLPRPRPRPPCDPRP | 0.242
4 | RRIRCRPPRLPRPRPRPPCSPRP | -0.315
5 | RRIRCRPPRLPRPRPRPPDWPRP | 0.416
6 | RRIRCRPPRLPRPRPRPPEMPRP | 0.67
7 | RRIRCRPPRLPRPRPRPPFAPRP | 0.455
8 | RRIRCRPPRLPRPRPRPPFEPRP | 0.136
9 | RRIRCRPPRLPRPRPRPPFHPRP | -0.224
10 | RRIRCRPPRLPRPRPRPPHMPRP | 1.56
11 | RRIRCRPPRLPRPRPRPPIDPRP | -0.071
12 | RRIRCRPPRLPRPRPRPPIEPRP | -0.0198
13 | RRIRCRPPRLPRPRPRPPKAPRP | -0.112
14 | RRIRCRPPRLPRPRPRPPKFPRP | -0.0746
15 | RRIRCRPPRLPRPRPRPPLDPRP | 0.616
16 | RRIRCRPPRLPRPRPRPPMLPRP | 0.0982
17 | RRIRCRPPRLPRPRPRPPPKPRP | 1.51
18 | RRIRCRPPRLPRPRPRPPPLPRP | 1.15
19 | RRIRCRPPRLPRPRPRPPQFPRP | 0.695
20 | RRIRCRPPRLPRPRPRPPQQPRP | 0.549
21 | RRIRCRPPRLPRPRPRPPRVPRP | 0.935
22 | RRIRCRPPRLPRPRPRPPSEPRP | 0.102
23 | RRIRCRPPRLPRPRPRPPSFPRP | 0.175
24 | RRIRCRPPRLPRPRPRPPSIPRP | 0.0499
25 | RRIRCRPPRLPRPRPRPPTIPRP | -0.158

Row | Sequence | shrunken log2 fold change
26 | RRIRCRPPRLPRPRPRPPTNPRP | 0.248
27 | RRIRCRPPRLPRPRPRPPTYPRP | -0.133
28 | RRIRCRPPRLPRPRPRPPVEPRP | 0.35
29 | RRIRCRPPRLPRPRPRPPVRPRP | 0.519
30 | RRIRCRPPRLPRPRPRPPWFPRP | -0.00887
31 | RRIRCRPPRLPRPRPRPPWKPRP | 0.195
32 | RRIRCRPPRLPRPRPRPQAIPRP | -0.205
33 | RRIRCRPPRLPRPRPRPQARPRP | -0.421
34 | RRIRCRPPRLPRPRPRPQASPRP | -0.000207
35 | RRIRCRPPRLPRPRPRPQCNPRP | -0.5
36 | RRIRCRPPRLPRPRPRPQFEPRP | 0.000801
37 | RRIRCRPPRLPRPRPRPQFGPRP | -0.233
38 | RRIRCRPPRLPRPRPRPQFTPRP | -0.427
39 | RRIRCRPPRLPRPRPRPQHIPRP | -0.868
40 | RRIRCRPPRLPRPRPRPQHMPRP | -0.74
41 | RRIRCRPPRLPRPRPRPQHNPRP | -0.771
42 | RRIRCRPPRLPRPRPRPQLQPRP | 0.0481
43 | RRIRCRPPRLPRPRPRPQNFPRP | -0.43
44 | RRIRCRPPRLPRPRPRPQRGPRP | 0.337
45 | RRIRCRPPRLPRPRPRPQRYPRP | -0.105
46 | RRIRCRPPRLPRPRPRPQSHPRP | -0.304
47 | RRIRCRPPRLPRPRPRPQVDPRP | 0.0243
48 | RRIRCRPPRLPRPRPRPQVMPRP | -0.464
49 | RRIRCRPPRLPRPRPRPQVTPRP | -0.102
50 | RRIRCRPPRLPRPRPRPQWGPRP | 0.502

Row | Sequence | shrunken log2 fold change
51 | RRIRCRPPRLPRPRPRPQWLPRP | -0.133
52 | RRIRCRPPRLPRPRPRPQYTPRP | -0.946
53 | RRIRCRPPRLPRPRPRPRAPPRP | 0.87
54 | RRIRCRPPRLPRPRPRPRASPRP | 0.282
55 | RRIRCRPPRLPRPRPRPRCMPRP | -0.143
56 | RRIRCRPPRLPRPRPRPRDKPRP | 0.0174
57 | RRIRCRPPRLPRPRPRPRDYPRP | 0.00558
58 | RRIRCRPPRLPRPRPRPRGVPRP | 0.69
59 | RRIRCRPPRLPRPRPRPRKIPRP | 0.245
60 | RRIRCRPPRLPRPRPRPRLFPRP | 0.437
61 | RRIRCRPPRLPRPRPRPRLPPRP | 0.382
62 | RRIRCRPPRLPRPRPRPRMWPRP | 0.0419
63 | RRIRCRPPRLPRPRPRPRQEPRP | 0.121
64 | RRIRCRPPRLPRPRPRPRQYPRP | -0.15
65 | RRIRCRPPRLPRPRPRPRRHPRP | -0.0331
66 | RRIRCRPPRLPRPRPRPRSCPRP | -0.159
67 | RRIRCRPPRLPRPRPRPRSFPRP | -0.342
68 | RRIRCRPPRLPRPRPRPRSGPRP | 0.694
69 | RRIRCRPPRLPRPRPRPRVIPRP | 0.0854
70 | RRIRCRPPRLPRPRPRPRVRPRP | 0.197
71 | RRIRCRPPRLPRPRPRPRWHPRP | -0.00459
72 | RRIRCRPPRLPRPRPRPRWNPRP | 2.15
73 | RRIRCRPPRLPRPRPRPRWTPRP | 0.236
74 | RRIRCRPPRLPRPRPRPRYPPRP | -0.00708
75 | RRIRCRPPRLPRPRPRPSCRPRP | -0.685

Row | Sequence | shrunken log2 fold change
76 | RRIRCRPPRLPRPRPRPSEFPRP | -0.287
77 | RRIRCRPPRLPRPRPRPSEVPRP | -0.328
78 | RRIRCRPPRLPRPRPRPSEYPRP | -0.497
79 | RRIRCRPPRLPRPRPRPSHAPRP | -0.375
80 | RRIRCRPPRLPRPRPRPSKHPRP | -0.553
81 | RRIRCRPPRLPRPRPRPSKWPRP | -0.0391
82 | RRIRCRPPRLPRPRPRPSMMPRP | -0.307
83 | RRIRCRPPRLPRPRPRPSNNPRP | -0.707
84 | RRIRCRPPRLPRPRPRPSPFPRP | -0.0566
85 | RRIRCRPPRLPRPRPRPSPHPRP | -0.144
86 | RRIRCRPPRLPRPRPRPSQMPRP | -0.278
87 | RRIRCRPPRLPRPRPRPSQRPRP | -0.54
88 | RRIRCRPPRLPRPRPRPSRTPRP | 0.0175
89 | RRIRCRPPRLPRPRPRPSSNPRP | -0.715
90 | RRIRCRPPRLPRPRPRPSTIPRP | 0.255
91 | RRIRCRPPRLPRPRPRPSVTPRP | -0.288
92 | RRIRCRPPRLPRPRPRPSWLPRP | -0.547
93 | RRIRCRPPRLPRPRPRPSWYPRP | -0.675
94 | RRIRCRPPRLPRPRPRPSYMPRP | -0.646
95 | RRIRCRPPRLPRPRPRPSYYPRP | -0.794
96 | RRIRCRPPRLPRPRPRPTCNPRP | -0.265
97 | RRIRCRPPRLPRPRPRPTEAPRP | 0.425
98 | RRIRCRPPRLPRPRPRPTENPRP | 0.0623
99 | RRIRCRPPRLPRPRPRPTFLPRP | -0.475
100 | RRIRCRPPRLPRPRPRPTHNPRP | 0.124

Row | Sequence | shrunken log2 fold change
101 | RRIRCRPPRLPRPRPRPTIEPRP | -0.276
102 | RRIRCRPPRLPRPRPRPTKGPRP | -0.0938
103 | RRIRCRPPRLPRPRPRPTLVPRP | 0.12
104 | RRIRCRPPRLPRPRPRPTMIPRP | -0.922
105 | RRIRCRPPRLPRPRPRPTMQPRP | -0.0203
106 | RRIRCRPPRLPRPRPRPTMSPRP | -0.139
107 | RRIRCRPPRLPRPRPRPTNIPRP | -0.662
108 | RRIRCRPPRLPRPRPRPTPQPRP | 0.794
109 | RRIRCRPPRLPRPRPRPTQVPRP | 0.0177
110 | RRIRCRPPRLPRPRPRPTRRPRP | 0.391
111 | RRIRCRPPRLPRPRPRPTSFPRP | -0.306
112 | RRIRCRPPRLPRPRPRPTSWPRP | 0.0567
113 | RRIRCRPPRLPRPRPRPTTAPRP | 0.166
114 | RRIRCRPPRLPRPRPRPTVMPRP | 0.0757
115 | RRIRCRPPRLPRPRPRPTWCPRP | -0.0117
116 | RRIRCRPPRLPRPRPRPVAIPRP | -0.156
117 | RRIRCRPPRLPRPRPRPVASPRP | 0.149
118 | RRIRCRPPRLPRPRPRPVCLPRP | -0.168
119 | RRIRCRPPRLPRPRPRPVDEPRP | 2.09
120 | RRIRCRPPRLPRPRPRPVDHPRP | -0.148
121 | RRIRCRPPRLPRPRPRPVEAPRP | 0.338
122 | RRIRCRPPRLPRPRPRPVEKPRP | 0.551
123 | RRIRCRPPRLPRPRPRPVELPRP | 0.103
124 | RRIRCRPPRLPRPRPRPVFHPRP | -0.262
125 | RRIRCRPPRLPRPRPRPVGVPRP | 0.299

Row | Sequence | shrunken log2 fold change
126 | RRIRCRPPRLPRPRPRPVHHPRP | -0.176
127 | RRIRCRPPRLPRPRPRPVICPRP | -0.241
128 | RRIRCRPPRLPRPRPRPVLFPRP | -0.101
129 | RRIRCRPPRLPRPRPRPVLNPRP | -0.396
130 | RRIRCRPPRLPRPRPRPVLWPRP | 0.136
131 | RRIRCRPPRLPRPRPRPVMGPRP | 0.111
132 | RRIRCRPPRLPRPRPRPVQTPRP | -0.0555
133 | RRIRCRPPRLPRPRPRPVRMPRP | -0.053
134 | RRIRCRPPRLPRPRPRPVSWPRP | 0.49
135 | RRIRCRPPRLPRPRPRPVVHPRP | -0.55
136 | RRIRCRPPRLPRPRPRPVVPPRP | -0.168
137 | RRIRCRPPRLPRPRPRPVWFPRP | 0.029
138 | RRIRCRPPRLPRPRPRPVWVPRP | 0.195
139 | RRIRCRPPRLPRPRPRPVWYPRP | -0.184
140 | RRIRCRPPRLPRPRPRPVYIPRP | -0.756
141 | RRIRCRPPRLPRPRPRPVYTPRP | -0.222
142 | RRIRCRPPRLPRPRPRPVYVPRP | -0.483
143 | RRIRCRPPRLPRPRPRPWDEPRP | 0.247
144 | RRIRCRPPRLPRPRPRPWDIPRP | -0.179
145 | RRIRCRPPRLPRPRPRPWDLPRP | 0.129
146 | RRIRCRPPRLPRPRPRPWETPRP | 0.323
147 | RRIRCRPPRLPRPRPRPWGNPRP | -0.256
148 | RRIRCRPPRLPRPRPRPWGYPRP | -0.372
149 | RRIRCRPPRLPRPRPRPWKAPRP | 0.0231
150 | RRIRCRPPRLPRPRPRPWKEPRP | 0.124
